Measured values published in the DeepSol protein solubility set.

assay: soluble on expression in E. coli; label from the status in PepcDB or PDB records

Sequence	soluble on expression in E. coli
MGSDKIHHHHHHMTPRISQKEVNDAVWNACDTFRGVVDASAYKDYVLTMLFLKYISDVWQDNYDTYKAEYGDAPELIEEMMKNERFVLPKDASFYALYERRFEAGNGERIDKALHAIEEANMGKLNDVFQDISFNSTKLGDDKQKNDILRHMLEDFSKPELNLRPSRIGNLDIIGNAYEFLIKHFAASSGKKAGEFYTPPEVSQLIAELVNPQEGDEICDPACGSASLLMKCAKLIKDRFGNRKYALYGQEAIGSTWSLAKMNMFLHSEDNHRIEWGDTLRNPLLLDGDDHLKHFDIVVANPPFSLDKWGHEAAEADRFGRFRRGIPPKTKGDYAFILHMIETLKPGTGRMGVVVPHGVLFRASSEGEIRKQLIKENLLDMVIGLPEKLFYGTGIPAAILVFRKNKKDNNVLFIDASREYQDGKNQNFLRDEDIQKVLDTAKARESVDKYAYLATLEEIRENDFNLNIPRYVDTFEEEEEIDLEAVLKERKELKADLAKLEVEMEGYLKELGYLTGEE	not soluble
GHMEERVLGMPAVESNMFPLGKQAPPFALTNVIDGNVVRLEDVKSDAATVIMFICNHCPFVKHVQHELVRLANDYMPKGVSFVAINSNDAEQYPEDSPENMKKVAEELGYPFPYLYDETQEVAKAYDAACTPDFYIFDRDLKCVYRGQLDDSRPNNGIPVTGESIRAALDALLEGRPVPEKQKPSIGCSIKWKPSA	soluble
SNAIFMDYYENRKVMAEAQNIYEKSPMEEQSQDGEVRKQFKALQQINQEIVGWITMDDTQINYPIVQAKDNDYYLFRNYKGEDMRAGSIFMDYRNDVKSQNRNTILYGHRMKDGSMFGSLKKMLDEEFFMSHRKLYYDTLFEGYDLEVFSVYTTTTDFYYIETDFSSDTEYTSFLEKIQEKSLYKTDTTVTAGDQIVTLSTCDYALDPEAGRLVVHAKLVKRQ	soluble
TDYAVTALRAWTRPLNYDIEHVYRITLATVQKDKDGKWKERSADQGKTMMQTLDLIAAYPGVEAACLQQWGGHYSSSSSNSSFQLDTVSLINVEDRMVSPDYFRVFRVYGADGSSPEEMAERFGKLHMNDLQRDYYLSRNALDYVEKVNGEGRESDRRYIGMSDSINYNMVSVVDGVQSEKSIRYNQTLRGLIPDQPKNEAESTGYISLKPITEEYISQNELISYSVYLRVSPEADTPDFKEQFVKRMKAVTKDDTYPVLTMNAVSEDRAGILADPVRQINNH	not soluble
YRNSIEGLIEKGIRDEEFIPYYQPIVDSRTQEVVGYEVLLRWQKGHQLVPPSLFISAAEDSGLVVKITNQLIQQVHRDLAQIPAPRWVSINVVADHLEQHHLTHLLEELHWPYSERLKFELTERVPIKAMTQAQEEVFYLLKKGYQFKIDDFGTGYGGFAYLQNLQISSIKIDKMFVDTINTHDVKISVLDSIIASAQGGNIEVIAEGVEHQYQVDYLAERNVFWIQGYFYAKP	not soluble
MVTVPEGYEANVIYALGDSINPRVGDWDDNNIPSGPSFQFRSGDCHDGMHYFGLNTSTNRFDETVSAQGLLVMNHEYINQTFLHPKGPTKVDGRRPEDEVIRETNAHGVSVVHIKKDPTTQKVEIVKNSIFNRRITASTVMEFAGAAAGSSLLATRFSPAGRQTRGTHNNCGNGYTPWGTYLTTEENFIGYFQRSGSDEYARTDAEKIALKRYGLGVKKDEPYLYEKDEKGAPKKDKDGKIIYLKDKNGELIPNVDEQGRQIYLGTSSRYGWETAIGQVESQDLYDRWNADVKAAQATQDYRNGPNTFGWMVEIDPFDGRQNPVKRTSLGRFAHEDSACRAVVGQPLAFYMGDDSRGEYIYKFVSTAVWDTKDINGGYTAGDKYMNAGKLYVAKFNNDGSGQWIELAYGKNGLNESNTTYPFKSQADVVTFARLAADSVGATKMDRPEWCTVNPVNGEIYVTLTNNSNRGKDYATDAANPRNYTDLYAGTKEQKGNVNGHIIRFKETDDKTTAETFKWDIYLFGAEASMASNINLSGLTDNNDFSSPDGMWFDPRGVLWIETDDGAYTDVTNCMMLAALPGQIGDGGTLEHHHHHH	soluble
MTHRSSRLEVGPVARGDVATIEHAELPPGWVLTTSGRISGVTEPGELSVHYPFPIADLVALDDALTYSSRACQVRFAIYLGDLGRDTAARAREILGKVPTPDNAVLLAVSPNQCAIEVVYGSQVRGRGAESAAPLGVAAASSAFEQGELVDGLISAIRVLSAGIAPG	soluble
MGSDKIHHHHHHMKDNFFGREYDIAPAGGETGQAFVATHEDEKFFLKRNSSPFLAALSVENIVPKLVWTRRVENGDVITAQKWVNCHILTREEMVGPRVAKLLAKIHHSENLQHMLAKIENCYFSADQLLSLIKVNTKANNELSKEIIAAIRYLEQNLSAAQTNDYVVCHGDVNHNNWIISEENELFLVDWDGAMLADPANDIGMILYQYIPRKDWVSWLSNYGTTLTEELHRKLKWYTICQTVMQLITEHSNEANERAKQIFQNAIEDDEV	not soluble
MAIDPAAAYASAIRTPGLLPNAKLVVDHFHVTTLANDALTAVRRRVTWAFHDRRGRKIDPQWANRRRLLTARERLSDKSFAKMRNRINAVDPRAQILSAWIAKEELRTLLSTVRTGGDPHLARHHLHRFLPGASTRRSPNCSPWPPPLTSHPRSTPSWSPASPTRASVVGEVAEMLGDIDGQCVQVEVPVPERGPAGCGGLDGLGRAGVSATPRVCAAMTAVNVAGRCAGQQADVGPTPQHRCRGR	soluble
MGSDKIHHHHHHMERNEMLKKVEAAMPNARFKHTLGVEKAAVELAEHYHMDVEKARITALLHDYAKYYDDDKARKIIEDEGYDPRLLSFHRSLWHAPVGAYLAEKEFGITDTEILEAIRLHTTGSATMSDFDKLIYLADYTEQGRTFPGVYKARRLALKSLNEAMLFALSNTITHLVKKQQLVFPDTLDAYNYFVNLNLEGDY	not soluble
AIYHLTAKTGSRSGGQSARAKADYIQREGKYARDMDEVLHAESGHMPEFVERPADYWDAADLYERANGRLFKEVEFALPVELTLDQQKALASEFAQHLTGAERLPYTLAIHAGGGENPHCHLMISERINDGIERPAAQWFKRYNGKTPEKGGAQKTEALKPKAWLEQTREAWADHANRALERAGH	soluble
MTIVIGFEGSANKIGIGIIKDGEVLSNPRRTYITPPGQGFLPGETAKHHRSVILTVLQEALDEAGLKAADIDCVAYTKGPGMGAPLVTVAIVARTVAQLWGKPLLGVNHCIGHIEMGRLITNAQNPTVLYVSGGNTQVIAYSERRYRIFGETIDIAVGNCLDRFARVIKISNDPSPGYNIEQMAKKGNKYIELPYTVKGMDVSFSGILSYIEDAAHKMLSTDQCTPEDLCFSLQETVFAMLVEITERAMAHCGSQEVLIVGGVGCNLRLQEMMGVMCKERGARLFATDESFCIDNGAMIAQAGWEMFRSGHVTELPDSWITQRYRTDEVEVTWRD	soluble
MSLAQWNKQDSIRLQELLNGDGELKINTEAVKSIHFDFQSDKDNIKGTPIMSEDKPWMKFLKDLPKNFGDTTKWVRPNFVRLTPYTPYTTWHEDPVNDPIFLKRKDSLTISWKLNIKLIPGLRNGYVILPAGMDQTVTPSNNPLIGGLDADKFLYESLTKRGRAIRRNRNRAKGWKIYQSYVPTRQDSILFPRISKVSEQDSLPKQDTLLIKKDSAIINQNSLLLKDKINGKDQTEGHHHHHH	soluble
MKKDNTVFNDLQASLKQAVAIRQGKMPPSRVFKVETVDVKATREKTHMSQTEFAKAIHVSVRTLQNWEQGHRNPTGPAVALLKIVASAPDIAVRALRTA	not soluble
MLLDKIQNLIIQSDISIFQSMKKMDEEKVKLLFVFRGDCFVGILTIGDIQRAIIKQNDTSMQINNILDQNKVFAYKGESLEIIKNKMIHLRAECMPILDSKGELVDVLFWKDLFIDEVRVDDRKIDLPVVIMAGGKGTRLKPLTNVIPKPLIPIGDKTILEAILDQFESIGCSKFYMSVNYKYDILKFYLAQLDHKYDIRFFKEDKPLGTIGSVSLLKDKISTPFFVSNCDIIIDQDYRDVYDYHINNSNDLTIVTAVKRTRIPYGVIETIENGLMTELIEKPEFTYMINSGVYILQPELINEIPENELFHITHLMEKVKSRGGKIGCFPVSEKSWTDIGEWNEYLKLLGILEHHHHHH	not soluble
MGSDKIHHHHHHMLEFTKRSLMNKYNINERVLELYERALNDVEKEFKYYDEIREYNQLKVLKAFQEERISESHFTNSSGYGYNDIGRDSLDRVYANIFNTESAFVRPHFVNGTHAIGAALFGNLRPNDTMMSICGMPYDTLHDIIGMDDSKKVGSLREYGVKYKMVDLKDGKVDINTVKEELKKDDSIKLIHIQRSTGYGWRKSLRIAEIAEIIKSIREVNENVIVFVDNCYGEFVEEKEPTDVGADIIAGSLIKNIGGGIATTGGYIAGKEEYVTQATFRVTVPGIGGECGSTFGVMRSLYEGLFMAPHVTIEAVKGAVFCARIMELAGFDVLPKYNDKRTDIIQAIKFNDEKKLIDFIKGIQTASPVDSFVQCEAWDMPGYEDKVIMAAGTFVQGASIELSADAPIREPYIGYLQGGLTFDHAKLGVLIALSKLIM	not soluble
MLAKDSSLTRTGKGEIVDKDSSFTWYVGTIDEANAFIGLARVFSKDEKVRETLLEIQKMLFLVGAEPSLQKLSEKDLEWMLERVEEFERSVKKPHCFIILEKDESTAFLSVARAVVRRAERQAVRLYREGKARLLVVEWLNKLSYLLYLMILKEGGGDFEEI	not soluble
MEIFPAIDLKEGRCVRLYQGEFSKETVMNEDPVAQAIIFEKFGAKRLHIVDLDGAVAGESLNLSVIERICKAVRIPVQVGGGIRSLVAVEKLFSVGVDKVILGTAALYDKTFLEEAVLLYKEKIIVGIDAKNGFVATRGWLDVSEISYIDLAKQMEKIGVQTIVFTDISKDGTLAGPNIEQLELLQKSVAIRLIASGGVASIQDVKKLNDMNIYGVIIGKALYEKTIDLEEVVEVTKLC	not soluble
MSTDSTNYAAKHESLGKSVQRELQKTQSQLRQVVRKMQSKYNINNKARVAEISLLRQMQSQFSRKYVNKNLGNSNTLAQQGSYTKKDGTTAQAGDLLLAADNLHSRLTDKMLSISHVRENTISPFVLGCLKQITINAYHYLK	not soluble
MGSDKIHHHHHHMPQYTVYLAPAGYEQDLIDELGPRVIDVRGRLVRASGGPRHAAWAQNIWLDPVEMRIGSIGDAATRLKGIQRNWFLHAVDHHRRAALIAGKLPHVSARPHVFGTPAPTAPLGSWTLWEHDLVIASARCSSPFPDGEVHFVENRIDPPTRAYLKLWETFTRLGVQPAPGELCLDMGSCPGGWTWVLAGLGARVFSVDKADIAPHIAAMPNVNFCTGSAFGLDPQHAGAVDWFFSDVICYPDRLLATVQRWLERGQCRNFVCTLKFQATTDHATAAAFAAIPGSQLFHLAHNKHELTWVLLRDKA	not soluble
RRRFDEKRREMLMGKLEEINQKRIAEALESEKKSLEKVSRSDQLRIDLITNVSHDLKTPLTSMVGYIELIKKEELSDLVRDYVDVLSERAEKLKEMINSLFSLAKASSGNIELHPEKFELNRLVEQIFADMHDHVKESELQFVKQFTEENTEIISDNMYFYRICQNLIENALKYSAKHTRVFVKTYQKESSNHLCLEITNTAGYPMDFTKEEIIERFFRGDKQRSSEGNGLGLAIVSTYVKALGGEFDIKIDCDQFKACVEMPLSAITIT	not soluble
MAISIKGVNTGVIRKSNNFIALALKIKEPRNKESLFFMSVMELRDLLIALESRLHQKHKLDAAAHLQYEQARDKVIKKMAENIPEILVDELKNADINRRVNTLELTDNQGENLTFVLTLHDGSKCELVVNELQIEMLARAIIHAINNAEMRELALRITSLLDFLPLYDVDCQDNGNLEYDTYSQPEWKHNLFDHYLAVLYRFKDESGKEQFSGAVVKTREATPGKEIEAITRRMLDFSPRLKKLAGVPCQVYVRTVAANNAQPLTQDQCLRALHHLRVQSTSKTAPQAK	not soluble
